Measured values: patent US20230000834A1, “PHYSIOLOGICALLY ACTIVE SUBSTANCE BOUND TO BIOTIN MOIETY, AND COMPOSITION FOR ORAL ADMINISTRATION INCLUDING SAME” (priority 2019, published 2023)
Non-standard residues stand in square brackets, D forms with d. No end group written: not given here. biotin moiety B2 = not defined here; biotin moiety B3 = not defined here; Aib = CC(C)(N)C(=O)O

Tests used:
in vivo = conditions: SD, rat
Description: The specimens were administered by subcutaneous injection and orally in amounts of 20 μg/kg to experimental rats (SD rat) with a body weight of approximately 200 g, then blood serum was isolated and enzyme-linked immunosorbent assays were carried out to measure change in blood drug concentration over time. Blood samples were collected from the jugular vein. A polypeptide having the amino acid sequence of SEQ. ID. No. 6 was used as the control.

blood glucose = test: Intraperitoneal glucose tolerance test after oral administration, Embodiments 5 and 6; assay type: in vivo, mice (C57BL/6); conditions: C57BL/6 mice; 500 μg/kg oral at -20 minutes; glucose 2 g/kg intraperitoneal
Description: To confirm glucose tolerance, Embodiments 5 and 6 were orally administered to mice, and blood glucose regulation efficacy was measured through an intraperitoneal glucose tolerance test.
To measure peritoneal glucose tolerance in an animal model, 100 μl of specimen (500 μg/kg, SEQ. ID. No. 2) was orally administered at −20 minutes to 9-week-old male mice (C57BL/6), followed by intraperitoneal injection of 200 μl glucose (2 g/kg) and observation of blood glucose changes in blood collected from the tail vein at −20, 0, 20, 40, 60, 90 and 120 minutes.
FIG. 6 is a graph illustrating blood glucose change after administering glucose to each specimen.

Compound | bioavailability (in vivo) | glucose regulating ability (blood glucose change, FIG. 6) (blood glucose)
CC[C@H](C)[C@H](NC(=O)[C@H](CCC(=O)O)NC(=O)[C@H](CO)NC(=O)[C@@H](NC(=O)[C@@H](N)CO)C(C)C)C(=O)N[C@@H](CCC(N)=O)C(=O)N[C@@H](CC(C)C)C(=O)N[C@@H](CCSC)C(=O)N[C@@H](Cc1c[nH]cn1)C(=O)N[C@@H](CC(N)=O)C(=O)N[C@@H](CC(C)C)C(=O)NCC(=O)N[C@@H](CCCCN)C(=O)N[C@@H](Cc1c[nH]cn1)C(=O)N[C@@H](CC(C)C)C(=O)N[C@@H](CC(N)=O)C(=O)N[C@@H](CO)C(=O)N[C@@H](CCSC)C(=O)N[C@@H](CCC(=O)O)C(=O)N[C@@H](CCCNC(=N)N)C(=O)N[C@H](C(=O)N[C@@H](CCC(=O)O)C(=O)N[C@@H](Cc1c[nH]c2ccccc12)C(=O)N[C@@H](CC(C)C)C(=O)N[C@@H](CCCNC(=N)N)C(=O)N[C@@H](CCCCN)C(=O)N[C@@H](CCCCN)C(=O)N[C@@H](CC(C)C)C(=O)N[C@@H](CCC(N)=O)C(=O)N[C@@H](CC(=O)O)C(=O)N[C@H](C(=O)N[C@@H](Cc1c[nH]cn1)C(=O)N[C@@H](CC(N)=O)C(=O)N[C@@H](Cc1ccccc1)C(=O)N[C@@H](CSC1CC(=O)N(CCC(=O)NC(CCCCNC(=O)CCCCC2SCC3NC(=O)NC32)C(=O)NC(CCCCNC(=O)CCCCC2SCC3NC(=O)NC32)C(N)=O)C1=O)C(=O)O)C(C)C)C(C)C (stereo partly shown) [Embodiment 8] | 7.8% | 
CC[C@H](C)[C@H](NC(=O)[C@H](CCC(=O)O)NC(=O)[C@H](CO)NC(=O)[C@@H](NC(=O)[C@@H](N)CO)C(C)C)C(=O)N[C@@H](CCC(N)=O)C(=O)N[C@@H](CC(C)C)C(=O)N[C@@H](CCSC)C(=O)N[C@@H](Cc1c[nH]cn1)C(=O)N[C@@H](CC(N)=O)C(=O)N[C@@H](CC(C)C)C(=O)NCC(=O)N[C@@H](CCCCN)C(=O)N[C@@H](Cc1c[nH]cn1)C(=O)N[C@@H](CC(C)C)C(=O)N[C@@H](CC(N)=O)C(=O)N[C@@H](CO)C(=O)N[C@@H](CCSC)C(=O)N[C@@H](CCC(=O)O)C(=O)N[C@@H](CCCNC(=N)N)C(=O)N[C@H](C(=O)N[C@@H](CCC(=O)O)C(=O)N[C@@H](Cc1c[nH]c2ccccc12)C(=O)N[C@@H](CC(C)C)C(=O)N[C@@H](CCCNC(=N)N)C(=O)N[C@@H](CCCCN)C(=O)N[C@@H](CCCCN)C(=O)N[C@@H](CC(C)C)C(=O)N[C@@H](CCC(N)=O)C(=O)N[C@@H](CC(=O)O)C(=O)N[C@H](C(=O)N[C@@H](Cc1c[nH]cn1)C(=O)N[C@@H](CC(N)=O)C(=O)N[C@@H](Cc1ccccc1)C(=O)N[C@@H](CSC1CC(=O)N(CCC(=O)NC(CCCCNC(=O)CCCCC2SCC3NC(=O)NC32)C(=O)NC(CCCCNC(=O)CCCCC2SCC3NC(=O)NC32)C(=O)NC(CCCCNC(=O)CCCCC2SCC3NC(=O)NC32)C(N)=O)C1=O)C(=O)O)C(C)C)C(C)C (stereo partly shown) [Embodiment 9] | 4.9% | 
Embodiment 5: polypeptide of SEQ. ID. No. 8 bonded to biotin moiety B2 at C30 (H[Aib]QGTFTSDYSKYLDEQAAKEFVQWLMNTC(biotin moiety B2); reading uncertain) |  | glucose regulating ability
Embodiment 6: polypeptide of SEQ. ID. No. 8 bonded to biotin moiety B3 at C30 (H[Aib]QGTFTSDYSKYLDEQAAKEFVQWLMNTC(biotin moiety B3); reading uncertain) |  | glucose regulating ability
